Sequences and labels used below:
B1: τ131 (123–566), TPR array, wild type [S. cerevisiae] / τ138 (546–693), eWH-τIR [S. cerevisiae] (parent complex)
chain 1: VLDPEVAQLLSQANEAFVRNDLQVAERLFNEVIKKDARNFAAYETLGDIYQLQGRLNDCCNSWFLAAHLNASDWEFWKIVAILSADLDHVRQAIYCFSRVISLNPMEWESIYRRSMLYKKTGQLARALDGFQRLYMYNPYDANILRELAILYVDYDRIEDSIELYMKVFNANVERREAILAALENALDSSDEESAAEGEDADEKEPLEQDEDRQMFPDINWKKIDAKYKCIPFDWSSLNILAELFLKLAVSEVDGIKTIKKCARWIQRRESQTFWDHVPDDSEFDNRRFKNSTFDSLLAAEKEKSYNIPIDIRVRLGLLRLNTDNLVEALNHFQCLYDETFSDVADLYFEAATALTRAEKYKEAIDFFTPLLSLEEWRTTDVFKPLARCYKEIESYETAKEFYELAIKSEPDDLDIRVSLAEVYYRLNDPETFKHMLVDVVEMR
chain 2: SARSLRSLQRQRAILKVMNTIGGVAYLREQFYESVSKYMGSTTTLDKKTVRGDVDLMVESEKLGARTEPVSGRKIIFLPTVGEDAIQRYILKEKDSKKATFTDVIHDTEIYFFDQTEKNRFHRGKKSVERIRKFQNRQKNAKIKASDD
B2: τ131 (123–566), TPR array, wild type [S. cerevisiae] / τ138 (641–693), τ131-Interaction Region (τIR) [S. cerevisiae] (parent complex)
chain 1: B1 chain 1
chain 2: SKKATFTDVIHDTEIYFFDQTEKNRFHRGKKSVERIRKFQNRQKNAKIKASDD

Variants of B1 are the subject of one assay. The assay can be described thus: ITC; parent: 100 nM.
Regarding chain 1 E350K, the Kd (commonly a measure of binding affinity in units of concentration) came to 415 nM.

Consider chain 1 E376K, for which the Kd is 971 nM.

Variants of B2 are the subject of another assay. As to the kind of experiment: ITC; parent: 80 nM. On the technique in general: In ITC the heat of successive injections is recorded.
Take chain 1 E350K: the Kd was determined as 833 nM.

As for chain 1 E376K, the Kd was determined as 833 nM.

With chain 1 E375K, the Kd worked out at 89 nM.

Source of the values: article PMC4490372, “Architecture of TFIIIC and its role in RNA polymerase III pre-initiation complex assembly” (Nature Communications, 2015).
